Reference: the supplement of paper PMC9112550, “Optimization of the antimicrobial peptide Bac7 by deep mutational scanning” (BMC Biology, 2022)

Test system: Escherichia coli TOP10
Assay: shrunken log2 fold change of peptide-encoding DNA abundance (4.5 h post-induction vs induction); higher = less antimicrobial activity (less host growth inhibition)
Conditions: time post-induction: 4.5 h; library: site-saturation at positions 5, 18, 19, 20
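Also: peptides expressed intracellularly from a pBAD plasmid library in pooled LB shake-flask culture, induced with 0.3% L-arabinose, DNA abundance read by NGS, three biological replicates, DESeq2 with apeglm shrinkage.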

## RRIRCRPPRLPRPRPRPEMTPRP
  shrunken log2 fold change: 0.517

## RRIRVRPPRLPRPRPRPTFVPRP
  shrunken log2 fold change: 0.0147

## RRIRMRPPRLPRPRPRPFDFPRP
  shrunken log2 fold change: 0.0495

## RRIRHRPPRLPRPRPRPKFMPRP
  shrunken log2 fold change: -0.497

## RRIRYRPPRLPRPRPRPLRQPRP
  shrunken log2 fold change: 0.0273

## RRIRSRPPRLPRPRPRPRKQPRP
  shrunken log2 fold change: 0.248

## RRIRRRPPRLPRPRPRPKVDPRP
  shrunken log2 fold change: 0.0529

## RRIRFRPPRLPRPRPRPLRPPRP
  shrunken log2 fold change: 0.932

## RRIRSRPPRLPRPRPRPATVPRP
  shrunken log2 fold change: -0.15

## RRIRQRPPRLPRPRPRPVFSPRP
  shrunken log2 fold change: -0.192

## RRIRNRPPRLPRPRPRPISAPRP
  shrunken log2 fold change: -0.0545

## RRIRFRPPRLPRPRPRPNVCPRP
  shrunken log2 fold change: -0.0089

## RRIRYRPPRLPRPRPRPIMLPRP
  shrunken log2 fold change: -3.12

## RRIRERPPRLPRPRPRPSYEPRP
  shrunken log2 fold change: -0.499

## RRIRHRPPRLPRPRPRPPLLPRP
  shrunken log2 fold change: 0.152

## RRIRTRPPRLPRPRPRPFQHPRP
  shrunken log2 fold change: -0.214

## RRIRLRPPRLPRPRPRPPSYPRP
  shrunken log2 fold change: 0.119

## RRIRHRPPRLPRPRPRPSFKPRP
  shrunken log2 fold change: -0.6

## RRIRMRPPRLPRPRPRPQMRPRP
  shrunken log2 fold change: 1

## RRIRQRPPRLPRPRPRPRVVPRP
  shrunken log2 fold change: 0.0149

## RRIRSRPPRLPRPRPRPVFDPRP
  shrunken log2 fold change: 0.106

## RRIRYRPPRLPRPRPRPILRPRP
  shrunken log2 fold change: -0.172

## RRIRSRPPRLPRPRPRPFWGPRP
  shrunken log2 fold change: 0.176

## RRIRTRPPRLPRPRPRPLRQPRP
  shrunken log2 fold change: 0.456

## RRIRRRPPRLPRPRPRPWIVPRP
  shrunken log2 fold change: 3

## RRIRHRPPRLPRPRPRPKNGPRP
  shrunken log2 fold change: -0.0347

## RRIRHRPPRLPRPRPRPTCQPRP
  shrunken log2 fold change: -0.044

## RRIRQRPPRLPRPRPRPHMMPRP
  shrunken log2 fold change: -0.526

## RRIRIRPPRLPRPRPRPKNRPRP
  shrunken log2 fold change: -0.26

## RRIRRRPPRLPRPRPRPIPTPRP
  shrunken log2 fold change: 0.063

## RRIRIRPPRLPRPRPRPQTTPRP
  shrunken log2 fold change: -0.38

## RRIRDRPPRLPRPRPRPPSTPRP
  shrunken log2 fold change: -0.0415

## RRIRIRPPRLPRPRPRPQDMPRP
  shrunken log2 fold change: -0.0502

## RRIRCRPPRLPRPRPRPKNGPRP
  shrunken log2 fold change: 0.0379

## RRIRDRPPRLPRPRPRPCQCPRP
  shrunken log2 fold change: -0.017

## RRIRCRPPRLPRPRPRPMHAPRP
  shrunken log2 fold change: 0.315

## RRIRKRPPRLPRPRPRPYPTPRP
  shrunken log2 fold change: -0.0559

## RRIRHRPPRLPRPRPRPYWNPRP
  shrunken log2 fold change: -0.98

## RRIRHRPPRLPRPRPRPRIIPRP
  shrunken log2 fold change: -1.44

## RRIRGRPPRLPRPRPRPLDAPRP
  shrunken log2 fold change: 0.969

## RRIRGRPPRLPRPRPRPVLEPRP
  shrunken log2 fold change: 0.795

## RRIRGRPPRLPRPRPRPGSEPRP
  shrunken log2 fold change: 0.864

## RRIRRRPPRLPRPRPRPKDQPRP
  shrunken log2 fold change: 0.26

## RRIRHRPPRLPRPRPRPTWDPRP
  shrunken log2 fold change: 0.0552

## RRIRMRPPRLPRPRPRPPTTPRP
  shrunken log2 fold change: 0.991

## RRIRNRPPRLPRPRPRPKPEPRP
  shrunken log2 fold change: 0.0739

## RRIRQRPPRLPRPRPRPPQPPRP
  shrunken log2 fold change: 1.1

## RRIRGRPPRLPRPRPRPKRQPRP
  shrunken log2 fold change: 0.377

## RRIRFRPPRLPRPRPRPMPGPRP
  shrunken log2 fold change: -0.0263

## RRIRFRPPRLPRPRPRPSKGPRP
  shrunken log2 fold change: -0.115

## RRIRERPPRLPRPRPRPYFFPRP
  shrunken log2 fold change: -0.587

## RRIRARPPRLPRPRPRPPCPPRP
  shrunken log2 fold change: 0.489

## RRIRERPPRLPRPRPRPFVWPRP
  shrunken log2 fold change: -0.0465

## RRIRKRPPRLPRPRPRPHLIPRP
  shrunken log2 fold change: 0.108

## RRIRRRPPRLPRPRPRPKPCPRP
  shrunken log2 fold change: 0.126

## RRIRMRPPRLPRPRPRPSAYPRP
  shrunken log2 fold change: 0.319

## RRIRGRPPRLPRPRPRPVFRPRP
  shrunken log2 fold change: 0.375

## RRIRQRPPRLPRPRPRPCTLPRP
  shrunken log2 fold change: -0.56

## RRIRQRPPRLPRPRPRPQTLPRP
  shrunken log2 fold change: -0.319

## RRIRFRPPRLPRPRPRPFWTPRP
  shrunken log2 fold change: -0.257

## RRIRLRPPRLPRPRPRPMHTPRP
  shrunken log2 fold change: 0.25

## RRIRKRPPRLPRPRPRPLGLPRP
  shrunken log2 fold change: 0.159

## RRIRPRPPRLPRPRPRPFNMPRP
  shrunken log2 fold change: -0.949

## RRIRMRPPRLPRPRPRPFASPRP
  shrunken log2 fold change: 0.0812

## RRIRQRPPRLPRPRPRPSFNPRP
  shrunken log2 fold change: -0.48

## RRIRDRPPRLPRPRPRPQLRPRP
  shrunken log2 fold change: -0.0942

## RRIRTRPPRLPRPRPRPWHNPRP
  shrunken log2 fold change: -0.0242

## RRIRKRPPRLPRPRPRPHWDPRP
  shrunken log2 fold change: 0.0835

## RRIRKRPPRLPRPRPRPVITPRP
  shrunken log2 fold change: -0.249

## RRIRKRPPRLPRPRPRPKAKPRP
  shrunken log2 fold change: 0.0663

## RRIRHRPPRLPRPRPRPEREPRP
  shrunken log2 fold change: 0.0173

## RRIRRRPPRLPRPRPRPNESPRP
  shrunken log2 fold change: 0.137

## RRIRPRPPRLPRPRPRPDIEPRP
  shrunken log2 fold change: -0.215

## RRIRDRPPRLPRPRPRPHFYPRP
  shrunken log2 fold change: -0.321

## RRIRSRPPRLPRPRPRPNRAPRP
  shrunken log2 fold change: -0.0803

## RRIRQRPPRLPRPRPRPYVWPRP
  shrunken log2 fold change: -0.00378

## RRIRTRPPRLPRPRPRPMWQPRP
  shrunken log2 fold change: 0.0135

## RRIRNRPPRLPRPRPRPMVQPRP
  shrunken log2 fold change: -0.0629

## RRIRFRPPRLPRPRPRPPQYPRP
  shrunken log2 fold change: 0.0298

## RRIRMRPPRLPRPRPRPCETPRP
  shrunken log2 fold change: -0.263

## RRIRYRPPRLPRPRPRPKFAPRP
  shrunken log2 fold change: -0.44

## RRIRSRPPRLPRPRPRPSPCPRP
  shrunken log2 fold change: -0.04

## RRIRSRPPRLPRPRPRPPIEPRP
  shrunken log2 fold change: 0.314

## RRIRWRPPRLPRPRPRPKHYPRP
  shrunken log2 fold change: 0.473

## RRIRDRPPRLPRPRPRPAFMPRP
  shrunken log2 fold change: 0.699

## RRIRIRPPRLPRPRPRPGETPRP
  shrunken log2 fold change: 0.0122

## RRIRVRPPRLPRPRPRPIPYPRP
  shrunken log2 fold change: -0.0701

## RRIRSRPPRLPRPRPRPWQFPRP
  shrunken log2 fold change: 0.0527

## RRIRDRPPRLPRPRPRPWSVPRP
  shrunken log2 fold change: 0.0902

## RRIRSRPPRLPRPRPRPTHFPRP
  shrunken log2 fold change: -0.0655

## RRIRERPPRLPRPRPRPCEIPRP
  shrunken log2 fold change: -0.318

## RRIRKRPPRLPRPRPRPNDAPRP
  shrunken log2 fold change: 0.0832

## RRIRSRPPRLPRPRPRPSSFPRP
  shrunken log2 fold change: -0.356

## RRIRDRPPRLPRPRPRPGYTPRP
  shrunken log2 fold change: -0.127

## RRIRGRPPRLPRPRPRPNVHPRP
  shrunken log2 fold change: 0.167

## RRIRWRPPRLPRPRPRPLETPRP
  shrunken log2 fold change: -0.0608

## RRIRHRPPRLPRPRPRPLWDPRP
  shrunken log2 fold change: -0.15

## RRIRARPPRLPRPRPRPSDHPRP
  shrunken log2 fold change: -0.134

## RRIRIRPPRLPRPRPRPHQPPRP
  shrunken log2 fold change: -0.421

## RRIRRRPPRLPRPRPRPCCFPRP
  shrunken log2 fold change: 0.151

## RRIRSRPPRLPRPRPRPYYRPRP
  shrunken log2 fold change: -0.0115

## RRIRYRPPRLPRPRPRPIRKPRP
  shrunken log2 fold change: -0.0667

## RRIRVRPPRLPRPRPRPMDTPRP
  shrunken log2 fold change: -0.171

## RRIRFRPPRLPRPRPRPPHYPRP
  shrunken log2 fold change: -0.124

## RRIRCRPPRLPRPRPRPINEPRP
  shrunken log2 fold change: -0.116

## RRIRNRPPRLPRPRPRPWWAPRP
  shrunken log2 fold change: -0.0446

## RRIRTRPPRLPRPRPRPDNCPRP
  shrunken log2 fold change: 0.00765

## RRIRLRPPRLPRPRPRPCNWPRP
  shrunken log2 fold change: 0.0532

## RRIRPRPPRLPRPRPRPPTKPRP
  shrunken log2 fold change: 0.268

## RRIRIRPPRLPRPRPRPFLTPRP
  shrunken log2 fold change: -0.736

## RRIRMRPPRLPRPRPRPYTQPRP
  shrunken log2 fold change: -0.149

## RRIRFRPPRLPRPRPRPETHPRP
  shrunken log2 fold change: -0.0779

## RRIRYRPPRLPRPRPRPRITPRP
  shrunken log2 fold change: -0.382

## RRIRFRPPRLPRPRPRPMWHPRP
  shrunken log2 fold change: 0.0814

## RRIRHRPPRLPRPRPRPTSCPRP
  shrunken log2 fold change: -0.125

## RRIRSRPPRLPRPRPRPSSCPRP
  shrunken log2 fold change: -0.271

## RRIRCRPPRLPRPRPRPIEPPRP
  shrunken log2 fold change: 0.159

## RRIRSRPPRLPRPRPRPTVLPRP
  shrunken log2 fold change: 0.0356

## RRIRGRPPRLPRPRPRPCENPRP
  shrunken log2 fold change: 0.136

## RRIRWRPPRLPRPRPRPPRKPRP
  shrunken log2 fold change: 0.731

## RRIRERPPRLPRPRPRPQHSPRP
  shrunken log2 fold change: -0.597

## RRIRNRPPRLPRPRPRPKHTPRP
  shrunken log2 fold change: -0.0718

## RRIRERPPRLPRPRPRPSTKPRP
  shrunken log2 fold change: -0.232

## RRIRARPPRLPRPRPRPRTRPRP
  shrunken log2 fold change: 1.05

## RRIRVRPPRLPRPRPRPQGVPRP
  shrunken log2 fold change: -0.275

## RRIRTRPPRLPRPRPRPNQIPRP
  shrunken log2 fold change: -0.469

## RRIRWRPPRLPRPRPRPPGSPRP
  shrunken log2 fold change: 0.333

## RRIRGRPPRLPRPRPRPGFGPRP
  shrunken log2 fold change: 0.649

## RRIRRRPPRLPRPRPRPCMDPRP
  shrunken log2 fold change: -0.229

## RRIRMRPPRLPRPRPRPGEKPRP
  shrunken log2 fold change: 0.00581

## RRIRTRPPRLPRPRPRPMGKPRP
  shrunken log2 fold change: 0.0179

## RRIRPRPPRLPRPRPRPVRIPRP
  shrunken log2 fold change: 0.0103

## RRIRLRPPRLPRPRPRPNPTPRP
  shrunken log2 fold change: -0.149

## RRIRHRPPRLPRPRPRPIDLPRP
  shrunken log2 fold change: 0.036

## RRIRLRPPRLPRPRPRPRVGPRP
  shrunken log2 fold change: 0.295

## RRIRFRPPRLPRPRPRPSGPPRP
  shrunken log2 fold change: 0.21

## RRIRMRPPRLPRPRPRPPQTPRP
  shrunken log2 fold change: 0.424

## RRIRARPPRLPRPRPRPNNNPRP
  shrunken log2 fold change: -0.471

## RRIRHRPPRLPRPRPRPWPWPRP
  shrunken log2 fold change: 0.199

## RRIRGRPPRLPRPRPRPIIPPRP
  shrunken log2 fold change: -0.212

## RRIRMRPPRLPRPRPRPNLRPRP
  shrunken log2 fold change: -0.0219

## RRIRARPPRLPRPRPRPKHCPRP
  shrunken log2 fold change: 0.0395

## RRIRYRPPRLPRPRPRPLMYPRP
  shrunken log2 fold change: -0.48

## RRIRDRPPRLPRPRPRPGLWPRP
  shrunken log2 fold change: 1.37

## RRIRCRPPRLPRPRPRPWRCPRP
  shrunken log2 fold change: 0.486

## RRIRFRPPRLPRPRPRPPPSPRP
  shrunken log2 fold change: 1.35

## RRIRDRPPRLPRPRPRPMKTPRP
  shrunken log2 fold change: -0.00973

## RRIRGRPPRLPRPRPRPMACPRP
  shrunken log2 fold change: -0.119

## RRIRRRPPRLPRPRPRPYWYPRP
  shrunken log2 fold change: -0.423

## RRIRKRPPRLPRPRPRPTEDPRP
  shrunken log2 fold change: 1.03
